In publication PMC5660149, “Oligomerization and ATP stimulate condensin-mediated DNA compaction” (Scientific Reports, 2017):

Target: budding yeast condensin holoenzyme (heteropentamer of Smc2, Smc4, Brn1, Ycg1 and Ycs4) (budding yeast) (UniProt P38989)
Assay: SEC; Superose 6 10/300 gel filtration as the last step of purification after nickel-NTA and StrepTactin; self-association of the heteropentamer (monomer) into a multimer

- percent multimeric in the Streptactin-purified fraction: 30%
Substance: budding yeast condensin holoenzyme (heteropentamer of Smc2, Smc4, Brn1, Ycg1 and Ycs4), P38989 1-1170; Q12267 1-1418; P38170 1-754; Q06680 1-1035; Q06156 1-1176
